Measurements from paper PMC5452487.

Tests used:
Conditions in all cases: EMSA with 0.75 ug rArcR-ACME and 61.2 pmol biotinylated probe; buffer, salt, pH and temperature not given in the material
[1] = molecular target: T1, rArcR-ACME (Staphylococcus aureus USA300_FPR3757) (UniProt E9KNS2); assay: EMSA
T1 sequence: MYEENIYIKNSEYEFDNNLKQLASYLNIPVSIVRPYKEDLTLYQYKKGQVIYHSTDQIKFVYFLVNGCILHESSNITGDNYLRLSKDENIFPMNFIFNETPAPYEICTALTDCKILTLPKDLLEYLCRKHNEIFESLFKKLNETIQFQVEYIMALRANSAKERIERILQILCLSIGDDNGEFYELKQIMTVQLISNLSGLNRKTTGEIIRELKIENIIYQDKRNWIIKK

[2] = molecular target: T1, rArcR-ACME (Staphylococcus aureus USA300_FPR3757); assay: UV cross-linking
[3] = molecular target: T1, rArcR-ACME (Staphylococcus aureus USA300_FPR3757); assay: competition

GTACAAAATACATATTCATACAAAATTTTGCATTGAATAAATCTATATATGTGAAAACCCTCCCTAAACAATTGTGAATTAAATCACACGATGTTTTTTGAAAGCGTTTTATAATGTGAATGT (double strand) [arcACME promoter probe, 123 bp]
binding [1]: binds
binding [2]: binds

CAAATGATCACAGCATTTGGTACAGGAATCGGTGGCGACTTTGATCTAGCGAAAGCAAGATATCACAAAATCGTCATTATGACTGATGCCG (double strand) [gyrB fragment, non-specific competitor, 91 bp]
binding [3]: no binding

GTACAAAATACATATTCATACAAAATTTTGCATTGAATAAATCTATATATGTGAAAACCCTCCCTAAACAATTGTGAATTAAATCACACGATGTTTTTTGAAAGCGTTTTATAATGTGAATGT (double strand) [arcACME promoter fragment, unlabelled specific competitor]
binding [3]: binds
